# B1: CrGH (Chlamydomonas reinhardtii) (protein)
# chain: MTGSGKPAANKATANGDGEPVRFLKGAAISVWQNSGDDDSNWTRFAKSRWPFRSFGVSAIRGKYNIDKCSDFWNNYERDIKLAADIGSTTFRFSIEWARIEPLRGVFDMEAVHRYHQMLDCMAAHGLVPNATLWHFVHPTWFEQAGGWTKEENIPAFVRFSVKCFEWFKDKITLWATFNEPTCYMFLAFIVGIAPPGRIMDLVTAGRMLSTMLKAHTATYRAIKAAPGGQAAQVGLVSHHITFEPQGTGILYGVSKVLSDWMTYWWGWDVVHHWMLTGEFVWKLPVLGVWQRWQDPAGRPPCDWWGINYYSRGIFSWYLAPSCRESEVMTDMYYPIYPEGLYKCIKRCSEFGIPMYITETGIADARDDRRALMIDSYMKATLRAVAEGCDVRGLYYWTLLDNLEWATGYTMKFGLYAWEPDGSVDRKLKEGSKTLVRYFKTLPDDLAGVRAAARQVQGQLGEDLGVEAALEEEGVTRVAAGGKLVVGEAAGKGGEAEGRKAVGMVAIG
# notes: full-length CDS (1527-bp ORF, about 508 residues) in pMAL-c5x, MBP fusion, about 98 kDa, E. coli BL21(DE3), amylose resin; tag cleavage not mentioned; GH family 1, motifs TFNEP and ITETG
# Substrate: O=[N+]([O-])c1ccccc1O[C@@H]1O[C@H](CO)[C@H](O)[C@H](O)[C@H]1O
# Test: purified protein
# Type: biochemical, Chlamydomonas reinhardtii
# Conditions: 30 mM magnesium chloride buffer, pH 7.3, 37 °C, MBP fusion
protein,measurement,value
B1,Km,13.98 µM
same,kcat,3.62 s⁻¹

# — PMC8065580, “A Lipid Bodies-Associated Galactosyl Hydrolase Is Involved in Triacylglycerol Biosynthesis and Galactolipid Turnover in the Unicellular Green Alga Chlamydomonas reinhardtii” (Plants, 2021)
